Results taken from publication PMC6351033.

Molecular target: CXCR3 chemotactic receptor (human (endogenous in PBMC)) (UniProt P49682)
Chain of UniProt P49682 (P49682 whole entry): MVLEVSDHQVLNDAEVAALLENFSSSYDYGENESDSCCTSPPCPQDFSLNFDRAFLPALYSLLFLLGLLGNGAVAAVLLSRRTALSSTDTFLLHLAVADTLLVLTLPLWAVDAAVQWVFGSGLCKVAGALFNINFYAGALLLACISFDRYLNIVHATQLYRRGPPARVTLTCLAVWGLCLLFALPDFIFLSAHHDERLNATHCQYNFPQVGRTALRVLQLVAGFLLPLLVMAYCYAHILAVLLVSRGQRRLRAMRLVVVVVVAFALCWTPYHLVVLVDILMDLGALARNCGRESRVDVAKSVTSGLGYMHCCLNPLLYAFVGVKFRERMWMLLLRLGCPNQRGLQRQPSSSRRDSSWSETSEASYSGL

Tag7-Mts1 complex (from UniProt O75594 22-196; P26447 1-101)
chemotaxis of PBMC (Boyden chamber, Tag7-Mts1 at 10^-9 M) after preincubation of the cells with antibodies to CXCR3; reduction of migration: < 20%
